Data: the RNAGym collection of RNA variant scans (doi:10.7554/elife.80360)

B1: HDV Ribozyme (parent)
chain: GGCCGGCAUGGUCCCAGCCUCCUCGCUGGCGCCGGCUGGGCAACAUUCCGAGGGGACCGUCCCCUCGGUAAUGGCGAAUGGGACCCA

Variants of: B1
Test: self-cleavage, relative activity (ratio to wild type); higher = more cleavage; co-transcriptional
Variant GGCCGGCAUGGUCCCAGCCUCCUCGCUGGCGCCGGCUGGGCAACAUUCCGAGGGGACCCUCCCCUUGGUAAUGGCGAAUGGGACCCA has a self-cleavage of 0.81.
With GGCCGGCAUGGUCCCAGCCUCCUCGCUGGCGCCGGCUGGGCAACAUUCCGAGGGGACCGACCCCACGGUAAUGGCGAAUGGGACCCA the self-cleavage was 0.831.
GGCCGGCAUGGUCCCAGCCUCCUCGCUGGCGCCGGCUGGGCAACAUUCCGAGGGGACCGACCCCUCGGUAAUGGCGAAUAGGACCCA showed a self-cleavage of 0.3.
In the case of GGCCGGCAUGGUCCCAGCCUCCUCGCUGGCGCCGGCUGGGCAACAUUCCGAGGGGACCUUCCCCUCGGUAAUGGCGAAUGGGACCCC, the self-cleavage is reported as 1.17.
With GGCCGGCAUGGUCCCAGCCUCCUCGCUGGCGCCGGCUGGGCAACAUUCCGAGGGGACCUUCCCCUCGGUAAUGGCGAAUGGGACCCU the self-cleavage was 1.09.
GGCCGGCAUGGUCCCAGCCUCCUCGCUGGCGCCGGCUGGGCAACAUUCCGAGGGGACCGACCGCUCGGUAAUGGCGAAUGGGACCCA gave a self-cleavage of 0.851.
In the case of GGCCGGCAUGGUCCCAGCCUCCUCGCUGGCGCCGGCUGGGCAACAUUCCGAGGGGACCUUCCCCUCGGUAAUGGCGAAAGGGACCCA, the self-cleavage is reported as 0.929.
Variant GGCCGGCAUGGUCCCAGCCUCCUCGCUGGCGCCGGCUGGGCAACAUUCCGAGGGGACCUCCCCCUCGGUAAUGGCGAAUGGGACCCA has a self-cleavage of 1.37.
In the case of GGCCGGCAUGGUCCCAGCCUCCUCGCUGGCGCCGGCUGGGCAACAUUCCGAGGGGACCUGCCCCUCGGUAAUGGCGAAUGGGACCCA, the self-cleavage is reported as 0.88.
Variant GGCCGGCAUGGUCCCAGCCUCCUCGCUGGCGCCGGCUGGGCAACAUUCCGAGGGGACCGACCCCUCGGUAAAGGCGAAUGGGACCCA has a self-cleavage of 0.739.
GGCCGGCAUGGUCCCAGCCUCCUCGCUGGCGCCGGCUGGGCAACAUUCCGAGGGGACCUUCCGCUCGGUAAUGGCGAAUGGGACCCA gave a self-cleavage of 0.767.
With GGCCGGCAUGGUCCCAGCCUCCUCGCUGGCGCCGGCUGGGCAACAUUCCGAGGGGACCUUCCUCUCGGUAAUGGCGAAUGGGACCCA the self-cleavage was 1.04.
For GGCCGGCAUGGUCCCAGCCUCCUCGCUGGCGCCGGCUGGGCAACAUUCCGAGGGGACCUUCCCCUCGGUAAUGGAGAAUGGGACCCA, the self-cleavage was 0.0314.
Work on GGCCGGCAUGGUCCCAGCCUCCUCGCUGGCGCCGGCUGGGCAACAUUCCGAGGGGACCGACCCCUCGGUAAUGGCGAAUGUGACCCA yielded a self-cleavage of 0.151.
Variant GGCCGGCAUGGUCCCAGCCUCCUCGCUGGCGCCGGCUGGGCAACAUUCCGAGGGGACCGACCCCUCGGUAAUGGCGAAUGCGACCCA has a self-cleavage of 0.0811.
In the case of GGCCGGCAUGGUCCCAGCCUCCUCGCUGGCGCCGGCUGGGCAACAUUCCGAGGGGACCGCCCCCUCGGUAAUGGCGCAUGGGACCCA, the self-cleavage is reported as 0.575.
GGCCGGCAUGGUCCCAGCCUCCUCGCUGGCGCCGGCUGGGCAACAUUCCGAGGGGACCGCCCCCUCGGUAAUGGCGGAUGGGACCCA showed a self-cleavage of 0.831.
Work on GGCCGGCAUGGUCCCAGCCUCCUCGCUGGCGCCGGCUGGGCAACAUUCCGAGGGGACCGACCCCUCGGUAAUGGCGAAGGGGACCCA yielded a self-cleavage of 0.807.
For GGCCGGCAUGGUCCCAGCCUCCUCGCUGGCGCCGGCUGGGCAACAUUCCGAGGGGACCCUCCCCUCGGUAAUUGCGAAUGGGACCCA, the self-cleavage was 0.379.
In the case of GGCCGGCAUGGUCCCAGCCUCCUCGCUGGCGCCGGCUGGGCAACAUUCCGAGGGGACCGCCCCCUCGGUAGUGGCGAAUGGGACCCA, the self-cleavage is reported as 0.886.
GGCCGGCAUGGUCCCAGCCUCCUCGCUGGCGCCGGCUGGGCAACAUUCCGAGGGGACCUUCCCCUCGGUCAUGGCGAAUGGGACCCA showed a self-cleavage of 0.77.
Variant GGCCGGCAUGGUCCCAGCCUCCUCGCUGGCGCCGGCUGGGCAACAUUCCGAGGGGACCUUCCCCUCGGUGAUGGCGAAUGGGACCCA has a self-cleavage of 1.12.
GGCCGGCAUGGUCCCAGCCUCCUCGCUGGCGCCGGCUGGGCAACAUUCCGAGGGGACCUUCCCCUCGGUUAUGGCGAAUGGGACCCA showed a self-cleavage of 0.923.
With GGCCGGCAUGGUCCCAGCCUCCUCGCUGGCGCCGGCUGGGCAACAUUCCGAGGGGACCUUCCCCUCGGCAAUGGCGAAUGGGACCCA the self-cleavage was 0.852.
For GGCCGGCAUGGUCCCAGCCUCCUCGCUGGCGCCGGCUGGGCAACAUUCCGAGGGGACCGACCCCUCGGUAAUGGCGAAUGGGACCUA, the self-cleavage was 0.831.
With GGCCGGCAUGGUCCCAGCCUCCUCGCUGGCGCCGGCUGGGCAACAUUCCGAGGGGACCCUCCCCUCGGUAAUGGCGAAUGCGACCCA the self-cleavage was 0.261.
GGCCGGCAUGGUCCCAGCCUCCUCGCUGGCGCCGGCUGGGCAACAUUCCGAGGGGACCUUCCCCUCGGUAAUGGCGAAUGGGACCCA gave a self-cleavage of 0.997.
GGCCGGCAUGGUCCCAGCCUCCUCGCUGGCGCCGGCUGGGCAACAUUCCGAGGGGACCUUCCCCUCGGUAAUGGCGAAUGGGUCCCA showed a self-cleavage of 0.486.
Variant GGCCGGCAUGGUCCCAGCCUCCUCGCUGGCGCCGGCUGGGCAACAUUCCGAGGGGACCUUCCCCUCGGUAAUGGCGAAUGGGGCCCA has a self-cleavage of 0.732.
In the case of GGCCGGCAUGGUCCCAGCCUCCUCGCUGGCGCCGGCUGGGCAACAUUCCGAGGGGACCUUCCCCUCGGUAAUGGCGAAUGGUACCCA, the self-cleavage is reported as 0.554.
GGCCGGCAUGGUCCCAGCCUCCUCGCUGGCGCCGGCUGGGCAACAUUCCGAGGGGACCUUCCCCUCGGUACUGGCGAAUGGGACCCA showed a self-cleavage of 0.895.
Work on GGCCGGCAUGGUCCCAGCCUCCUCGCUGGCGCCGGCUGGGCAACAUUCCGAGGGGACCCUCGCCUCGGUAAUGGCGAAUGGGACCCA yielded a self-cleavage of 0.6.
